Experimental data from US20210403576A1 (HELIXMITH, published 2021).

Legend:
[1] = target: c-Met protein receptors on HUVEC (human, UniProt P08581 25-1390); test: cell-based or functional assay
[2] = target: T1, human c-Met (Sino Biological) (human, UniProt P08581 25-932, limits assumed); test: derived from the Biacore KD, normalised to VH0/Vk0
T1 construct: Analyte in the Biacore assay; also called antigen (c-Met); printed as "human c-Met antibody (Sino Biological, Beijing, China)"
Description: (§1) The candidate antibodies selected in Example 4 were measured for binding affinity for the antigen (c-Met) with the aid of Biacore. […] The anti-c-Met antibodies to be analyzed were immobilized on Protein A CM5 chips (GE Healthcare, Little Chalfont, UK) through which human c-Met antibody (Sino Biological, Beijing, China) with various concentrations ranging 0.15 to 2 nM was allowed to pass, thereby acquiring sensorgrams. On the basis of the acquired sensorgrams, association constants kₒₙ and dissociation constants koff were measured to calculate Ko value, the ratio koff/kₒₙ.
(§2) In order to select a final candidate group from the 21 candidate antibodies selected in Example 4, comparison was made according to criteria specified into expression level, binding affinity for antigen, thermal stability, and biopotency. As a rule, the expression level is considered to be the most important index when time and cost are taken into consideration from a point of view of production. […] Thereafter, degrees of improvement in each of the remaining candidate antibodies compared to the reference antibody (VH0/Vk0) were digitized with regard to the selected indices. For normalization, analysis index measurements for individual candidate antibodies were divided by average values to give ratios (index 1) which were in turn divided by the measurement for the antibody VH0/Vk0 (index 2) (Tables 6 to 9). In addition, the measurements for the four indices were multiplied for comprehensive comparison of the four indices of the candidate antibodies. The final results (index 3) are listed in a descending order in Table 10.

[3] = target: T1, human c-Met (Sino Biological); test: derived from the Biacore KD, printed 'Average' 3.52 x10^-10 M divided by the KD
Description: as §1, §2

[4] = target: T1, human c-Met (Sino Biological); test: SPR (Biacore T200), IgG captured on Protein A CM5 chip, c-Met 0.15-2 nM as analyte
Description: as §1

Chain of c-Met protein receptors on HUVEC (P08581 25-1390): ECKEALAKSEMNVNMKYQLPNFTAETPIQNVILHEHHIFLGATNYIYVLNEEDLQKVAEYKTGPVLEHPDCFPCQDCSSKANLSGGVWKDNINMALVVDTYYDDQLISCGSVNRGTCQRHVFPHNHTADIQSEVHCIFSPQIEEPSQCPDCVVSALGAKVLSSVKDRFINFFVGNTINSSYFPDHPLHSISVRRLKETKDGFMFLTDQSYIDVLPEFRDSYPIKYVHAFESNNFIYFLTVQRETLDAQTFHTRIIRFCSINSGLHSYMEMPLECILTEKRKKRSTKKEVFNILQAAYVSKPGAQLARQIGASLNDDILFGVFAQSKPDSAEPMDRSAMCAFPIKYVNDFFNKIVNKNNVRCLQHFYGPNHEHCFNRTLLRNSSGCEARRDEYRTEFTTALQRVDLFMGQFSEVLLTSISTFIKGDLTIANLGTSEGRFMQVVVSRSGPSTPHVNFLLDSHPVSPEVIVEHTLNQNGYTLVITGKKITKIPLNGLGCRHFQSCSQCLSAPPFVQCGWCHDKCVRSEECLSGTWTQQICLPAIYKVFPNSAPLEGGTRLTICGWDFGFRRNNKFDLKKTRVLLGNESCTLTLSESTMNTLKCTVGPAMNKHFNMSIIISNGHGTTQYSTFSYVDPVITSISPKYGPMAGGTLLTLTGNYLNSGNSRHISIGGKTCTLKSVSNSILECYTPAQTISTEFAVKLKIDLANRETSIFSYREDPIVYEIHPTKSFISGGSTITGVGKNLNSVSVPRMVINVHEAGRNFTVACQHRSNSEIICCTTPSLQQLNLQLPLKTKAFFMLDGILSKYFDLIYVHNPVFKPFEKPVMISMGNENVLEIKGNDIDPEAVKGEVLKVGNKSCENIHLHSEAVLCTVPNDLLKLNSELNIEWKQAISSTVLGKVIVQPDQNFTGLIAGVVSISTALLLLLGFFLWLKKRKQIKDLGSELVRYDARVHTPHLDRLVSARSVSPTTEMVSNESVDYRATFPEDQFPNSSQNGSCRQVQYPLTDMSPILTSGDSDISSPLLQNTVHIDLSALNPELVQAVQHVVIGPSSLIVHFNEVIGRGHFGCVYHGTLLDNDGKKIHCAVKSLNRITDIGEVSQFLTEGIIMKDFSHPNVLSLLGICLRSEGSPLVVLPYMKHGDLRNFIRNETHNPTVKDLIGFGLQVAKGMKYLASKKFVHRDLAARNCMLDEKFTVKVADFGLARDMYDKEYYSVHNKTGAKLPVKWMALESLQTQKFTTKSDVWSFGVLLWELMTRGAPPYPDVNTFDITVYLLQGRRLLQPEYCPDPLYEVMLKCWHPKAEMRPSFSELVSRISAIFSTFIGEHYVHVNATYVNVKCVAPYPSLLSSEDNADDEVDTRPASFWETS
T1 sequence (P08581 25-932 limits assumed): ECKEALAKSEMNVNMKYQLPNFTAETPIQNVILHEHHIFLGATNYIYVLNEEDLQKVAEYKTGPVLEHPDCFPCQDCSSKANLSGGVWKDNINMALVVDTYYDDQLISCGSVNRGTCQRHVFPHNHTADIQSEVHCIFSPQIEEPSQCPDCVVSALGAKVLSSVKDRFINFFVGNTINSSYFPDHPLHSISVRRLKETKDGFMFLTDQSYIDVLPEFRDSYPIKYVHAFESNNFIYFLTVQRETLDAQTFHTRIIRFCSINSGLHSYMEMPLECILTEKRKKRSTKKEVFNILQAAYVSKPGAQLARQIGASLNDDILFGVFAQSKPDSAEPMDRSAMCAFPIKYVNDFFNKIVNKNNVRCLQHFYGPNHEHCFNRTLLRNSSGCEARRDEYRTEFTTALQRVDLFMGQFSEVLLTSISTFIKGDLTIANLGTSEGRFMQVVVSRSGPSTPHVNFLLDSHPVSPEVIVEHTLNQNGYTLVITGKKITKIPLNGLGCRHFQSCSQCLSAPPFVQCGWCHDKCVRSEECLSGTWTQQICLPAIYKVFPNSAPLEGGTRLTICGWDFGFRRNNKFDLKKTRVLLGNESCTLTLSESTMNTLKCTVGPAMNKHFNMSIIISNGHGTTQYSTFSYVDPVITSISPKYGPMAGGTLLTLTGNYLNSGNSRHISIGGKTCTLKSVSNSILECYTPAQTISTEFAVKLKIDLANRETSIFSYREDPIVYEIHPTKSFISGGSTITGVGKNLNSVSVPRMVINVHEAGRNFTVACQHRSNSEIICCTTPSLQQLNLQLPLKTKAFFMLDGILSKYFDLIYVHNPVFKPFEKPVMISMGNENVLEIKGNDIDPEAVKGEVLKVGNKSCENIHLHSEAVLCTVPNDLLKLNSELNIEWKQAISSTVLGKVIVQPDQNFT

Binder | Index 1 (Relative Migration divided by the Average 157.5), HUVEC migration assay [1] | Index 2 (Relative Migration relative to VH0/Vk0), HUVEC migration assay [1] | Relative Migration (%), HUVEC migration assay, 90 ng/ml [1] | Index 2 (binding affinity, inverse KD relative to VH0/Vk0) [2] | Index 1 (binding affinity, inverse KD relative to the Average 3.52) [3] | Kd [4] | Relative KD to VMDO2 VH0/Vk0 [4]
VH4/Vk2 (antibody, IgG1, V domains shown, Full IgG1/kappa expressed in HEK 293 EBNA cells) VH: QVQLVQSGAEVKKPGSSVKVSCQGSGYSFPTHWITWVRQAPGQGLEWMGTIDPTDSYNFYGPSFQGRVTITADSSTSTAYMELSSLRSEDTAMYYCARDGNYYDSRGYYYDTFDMWGQGTLVTVSS VL: DIQMTQSPSSLSASVGDRVTITCRASQGISTYLAWYQQKPGKAPKLLIYSASTLESGVPSRFSGSGSGTDFTLTISSLQPEDFATYYCQQADSFPLTFGGGTKVEIK | 1.13 | 1.19 | 177% | 1.23 | 0.832 | 0.423 nM | 0.81
VH5/Vk4 (antibody, IgG1, V domains shown, Full IgG1/kappa expressed in HEK 293 EBNA cells) VH: QVQLVQSGAEVKKPGSSVKVSCQGSGYSFPTHWITWVRQAPGQGLEWMGTIDPTDSYNFYGPSFQGRVTITADSSTSTAYMELSSLRSEDTAVYYCARDGNYYDSRGYYYDTFDMWGQGTLVTVSS VL: EIQMTQSPGTLSLSPGERATLSCRASQGISTYLAWYQQKPGQAPRLLIYSASTLESGVPDRFSGSGSGTDFTLTISRLEPEDFATYYCQQADSFPLTFGGGTKVEIK |  |  |  |  |  | 0.349 nM | 0.67
VH5/Vk3 (antibody, IgG1, V domains shown, Full IgG1/kappa expressed in HEK 293 EBNA cells) VH: QVQLVQSGAEVKKPGSSVKVSCQGSGYSFPTHWITWVRQAPGQGLEWMGTIDPTDSYNFYGPSFQGRVTITADSSTSTAYMELSSLRSEDTAVYYCARDGNYYDSRGYYYDTFDMWGQGTLVTVSS VL: DIQMTQSPGFLSLSPGERATLSCRASQGISTYLAWYQQKPGQAPRLLIYSASTLESGVPDRFSGSGSGTDFTLTISRLEPEDFATYYCQQADSFPLTFGGGTKVEIK |  |  |  |  |  | 0.402 nM | 0.77
VH4/Vk4 (antibody, IgG1, V domains shown, Full IgG1/kappa expressed in HEK 293 EBNA cells) VH: QVQLVQSGAEVKKPGSSVKVSCQGSGYSFPTHWITWVRQAPGQGLEWMGTIDPTDSYNFYGPSFQGRVTITADSSTSTAYMELSSLRSEDTAMYYCARDGNYYDSRGYYYDTFDMWGQGTLVTVSS VL: EIQMTQSPGTLSLSPGERATLSCRASQGISTYLAWYQQKPGQAPRLLIYSASTLESGVPDRFSGSGSGTDFTLTISRLEPEDFATYYCQQADSFPLTFGGGTKVEIK |  |  |  |  |  | 0.372 nM | 0.72
VH3/Vk2 (antibody, IgG1, V domains shown, Full IgG1/kappa expressed in HEK 293 EBNA cells) VH: QVQLVQSGAEVKKPGSSVKVSCQGSGYSFPTHWITWVRQAPGQGLEWMGTIDPTDSYNFYGPSFQGRVTITADSSTSTAYLQWSSLKASDTAMYYCARDGNYYDSRGYYYDTFDMWGQGTLVTVSS VL: DIQMTQSPSSLSASVGDRVTITCRASQGISTYLAWYQQKPGKAPKLLIYSASTLESGVPSRFSGSGSGTDFTLTISSLQPEDFATYYCQQADSFPLTFGGGTKVEIK | 1.04 | 1.09 | 164% | 1.09 | 0.738 | 0.477 nM | 0.92
VH6/Vk3 (antibody, IgG1, V domains shown, Full IgG1/kappa expressed in HEK 293 EBNA cells) VH: QVQLVQSGAEVKKPGSSVKVSCKASGYSFPTHWITWVRQAPGQGLEWMGTIDPTDSYNFYGPSFQGRVTITADKSTSTAYMELSSLRSEDTAVYYCARDGNYYDSRGYYYDTFDMWGQGTLVTVSS VL: DIQMTQSPGFLSLSPGERATLSCRASQGISTYLAWYQQKPGQAPRLLIYSASTLESGVPDRFSGSGSGTDFTLTISRLEPEDFATYYCQQADSFPLTFGGGTKVEIK |  |  |  |  |  | 0.431 nM | 0.83
VH4/Vk0 (antibody, IgG1, V domains shown, Full IgG1/kappa expressed in HEK 293 EBNA cells) VH: QVQLVQSGAEVKKPGSSVKVSCQGSGYSFPTHWITWVRQAPGQGLEWMGTIDPTDSYNFYGPSFQGRVTITADSSTSTAYMELSSLRSEDTAMYYCARDGNYYDSRGYYYDTFDMWGQGTLVTVSS VL: DIQMTQSPSFLSASVGDRVTITCRASQGISTYLAWYQQKPGTAPKLLIYSASTLESGVPSRFSGSGSGTDFTLTISSLQPEDSATYYCQQADSFPLTFGGGTKVEIK | 0.773 | 0.812 | 122% | 1.32 | 0.891 | 0.395 nM | 0.76
VH6/Vk5 (antibody, IgG1, V domains shown, Full IgG1/kappa expressed in HEK 293 EBNA cells) VH: QVQLVQSGAEVKKPGSSVKVSCKASGYSFPTHWITWVRQAPGQGLEWMGTIDPTDSYNFYGPSFQGRVTITADKSTSTAYMELSSLRSEDTAVYYCARDGNYYDSRGYYYDTFDMWGQGTLVTVSS VL: EIVLTQSPGTLSLSPGERATLSCRASQGISTYLAWYQQKPGQAPRLLIYSASTLESGIPDRFSGSGSGTDFTLTISRLEPEDFATYYCQQADSFPLTFGGGTKVEIK |  |  |  |  |  | 0.557 nM | 1.07
VH5/Vk5 (antibody, IgG1, V domains shown, Full IgG1/kappa expressed in HEK 293 EBNA cells) VH: QVQLVQSGAEVKKPGSSVKVSCQGSGYSFPTHWITWVRQAPGQGLEWMGTIDPTDSYNFYGPSFQGRVTITADSSTSTAYMELSSLRSEDTAVYYCARDGNYYDSRGYYYDTFDMWGQGTLVTVSS VL: EIVLTQSPGTLSLSPGERATLSCRASQGISTYLAWYQQKPGQAPRLLIYSASTLESGIPDRFSGSGSGTDFTLTISRLEPEDFATYYCQQADSFPLTFGGGTKVEIK |  |  |  |  |  | 0.506 nM | 0.97
VH6/Vk4 (antibody, IgG1, V domains shown, Full IgG1/kappa expressed in HEK 293 EBNA cells) VH: QVQLVQSGAEVKKPGSSVKVSCKASGYSFPTHWITWVRQAPGQGLEWMGTIDPTDSYNFYGPSFQGRVTITADKSTSTAYMELSSLRSEDTAVYYCARDGNYYDSRGYYYDTFDMWGQGTLVTVSS VL: EIQMTQSPGTLSLSPGERATLSCRASQGISTYLAWYQQKPGQAPRLLIYSASTLESGVPDRFSGSGSGTDFTLTISRLEPEDFATYYCQQADSFPLTFGGGTKVEIK |  |  |  |  |  | 0.391 nM | 0.75
VH4/Vk3 (antibody, IgG1, V domains shown, Full IgG1/kappa expressed in HEK 293 EBNA cells) VH: QVQLVQSGAEVKKPGSSVKVSCQGSGYSFPTHWITWVRQAPGQGLEWMGTIDPTDSYNFYGPSFQGRVTITADSSTSTAYMELSSLRSEDTAMYYCARDGNYYDSRGYYYDTFDMWGQGTLVTVSS VL: DIQMTQSPGFLSLSPGERATLSCRASQGISTYLAWYQQKPGQAPRLLIYSASTLESGVPDRFSGSGSGTDFTLTISRLEPEDFATYYCQQADSFPLTFGGGTKVEIK |  |  |  |  |  | 0.422 nM | 0.81
VH2/Vk5 (antibody, IgG1, V domains shown, Full IgG1/kappa expressed in HEK 293 EBNA cells) VH: EVQLVQSGAEVKKPGESLKISCKGSGYSFPTHWITWVRQMPGKGLEWMGTIDPTDSYNFYGPSFQGQVTISADKSISTAYLQWSSLKASDTAMYYCARDGNYYDSRGYYYDTFDMWGQGTLVTVSS VL: EIVLTQSPGTLSLSPGERATLSCRASQGISTYLAWYQQKPGQAPRLLIYSASTLESGIPDRFSGSGSGTDFTLTISRLEPEDFATYYCQQADSFPLTFGGGTKVEIK |  |  |  |  |  | 0.685 nM | 1.32
